How the values were obtained:
[1] = tested on: control peptide comprising PCL1 (PCL1 Pep)
[2] = tested on: KL958 (C521S C370S)-PCL1-HSA

Sequence of control peptide comprising PCL1 (PCL1 Pep) (chain, as listed by the source): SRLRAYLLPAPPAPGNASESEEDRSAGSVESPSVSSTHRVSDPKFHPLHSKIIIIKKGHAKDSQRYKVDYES

Row | Molecule | protease cleavage of the peptide in vitro [1] | protease cleavage in reaction buffer, immunoblot with anti-KL antibodies [2] | protease cleavage in reaction buffer, immunoblot with anti-KL antibodies (KL958 (C521S)-PCL1-HSA)
1 | kallikrein 2 (KLK2) | The ability of two proteases, kallikrein 2 (KLK2) and matrix metalloproteinase 7 (MMP7), to cleave the protease cleavable linker PCL1 was confirmed using a control peptide comprising PCL1 (PCL1 Pep) | – | –
2 | matrix metalloproteinase 7 (MMP7) (enzyme, UniProt P09237 95-267, looked up, species assumed) Matrilysin: YSLFPNSPKWTSKVVTYRIVSYTRDLPHITVDRLVSKALNMWGKEIPLHFRKVVWGTADIMIGFARGAHGDSYPFDGPGNTLAHAFAPGTGLGGDAHFDEDERWTDGSSLGINFLYAATHELGHSLGMGHSSDPNAVMYPTYGNGDPQNFKLSQDDIKGIQKLYGKRSNSRKK | The ability of two proteases, kallikrein 2 (KLK2) and matrix metalloproteinase 7 (MMP7), to cleave the protease cleavable linker PCL1 was confirmed using a control peptide comprising PCL1 (PCL1 Pep) | PCL1-containing KL polypeptides displayed cleavage of the linker, resulting in a shorter KL polypeptide in the presence of MMP7 | PCL1-containing KL polypeptides displayed cleavage of the linker, resulting in a shorter KL polypeptide in the presence of MMP7
